Source: patent publication US20140037547A1 (UNIVERSITY OF VERMONT AND STATE AGRICULTURAL COLLEGE, published 2014)

Columns and labels:
SW:329-358 = molecular target: T1, SW:329-358
T1 chain: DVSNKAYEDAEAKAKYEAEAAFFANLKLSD

SW:329-349 = molecular target: T2, SW:329-349
T2 chain: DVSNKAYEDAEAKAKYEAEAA

[1] = molecular target: T3, wild-type PKG Iα (cGMP-dependent protein kinase type Iα, full length) (UniProt P00516 2-671); assay: cell-based or functional assay
T3 sequence (looked up): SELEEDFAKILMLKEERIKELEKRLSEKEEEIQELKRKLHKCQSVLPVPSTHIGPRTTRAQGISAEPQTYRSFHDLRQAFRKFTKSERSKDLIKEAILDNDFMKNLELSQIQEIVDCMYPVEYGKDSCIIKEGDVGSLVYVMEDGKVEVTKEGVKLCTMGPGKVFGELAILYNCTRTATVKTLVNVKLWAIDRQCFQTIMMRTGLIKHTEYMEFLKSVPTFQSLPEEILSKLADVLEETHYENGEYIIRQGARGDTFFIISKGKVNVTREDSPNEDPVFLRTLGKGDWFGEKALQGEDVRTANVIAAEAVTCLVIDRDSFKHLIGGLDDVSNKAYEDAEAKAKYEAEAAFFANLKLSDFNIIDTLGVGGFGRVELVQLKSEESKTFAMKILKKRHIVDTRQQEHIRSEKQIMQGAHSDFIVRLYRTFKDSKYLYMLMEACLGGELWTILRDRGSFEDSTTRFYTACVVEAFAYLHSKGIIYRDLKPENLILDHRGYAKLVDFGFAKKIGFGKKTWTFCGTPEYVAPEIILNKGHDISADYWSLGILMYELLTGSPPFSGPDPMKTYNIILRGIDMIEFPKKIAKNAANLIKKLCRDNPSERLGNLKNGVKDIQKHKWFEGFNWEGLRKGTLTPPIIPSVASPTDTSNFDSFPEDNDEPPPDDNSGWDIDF

B1: wild-type PKG Iα (cGMP-dependent protein kinase type Iα, full length) (protein)
chain: SELEEDFAKILMLKEERIKELEKRLSEKEEEIQELKRKLHKCQSVLPVPSTHIGPRTTRAQGISAEPQTYRSFHDLRQAFRKFTKSERSKDLIKEAILDNDFMKNLELSQIQEIVDCMYPVEYGKDSCIIKEGDVGSLVYVMEDGKVEVTKEGVKLCTMGPGKVFGELAILYNCTRTATVKTLVNVKLWAIDRQCFQTIMMRTGLIKHTEYMEFLKSVPTFQSLPEEILSKLADVLEETHYENGEYIIRQGARGDTFFIISKGKVNVTREDSPNEDPVFLRTLGKGDWFGEKALQGEDVRTANVIAAEAVTCLVIDRDSFKHLIGGLDDVSNKAYEDAEAKAKYEAEAAFFANLKLSDFNIIDTLGVGGFGRVELVQLKSEESKTFAMKILKKRHIVDTRQQEHIRSEKQIMQGAHSDFIVRLYRTFKDSKYLYMLMEACLGGELWTILRDRGSFEDSTTRFYTACVVEAFAYLHSKGIIYRDLKPENLILDHRGYAKLVDFGFAKKIGFGKKTWTFCGTPEYVAPEIILNKGHDISADYWSLGILMYELLTGSPPFSGPDPMKTYNIILRGIDMIEFPKKIAKNAANLIKKLCRDNPSERLGNLKNGVKDIQKHKWFEGFNWEGLRKGTLTPPIIPSVASPTDTSNFDSFPEDNDEPPPDDNSGWDIDF
For B1, the “Ka (activation of PKG Iα, 32P-incorporation assay)” value (SW:329-358) was “Ka=500 µM” and the “activation of PKG Iα (32P-incorporation assay, cGMP priming conditions)” value (SW:329-349) was “rendered a completely inactive SW-peptide derivative”.

With DVSNKAYEDAEAKAKYEAEAAFFANLKLSD [SW:329-358] the “Ka (activation of PKG Iα, kinase primed with 100 nM cGMP)” value [1] was 40 µM and the “shift of the activation profile on priming with 100 nM cGMP” value [1] was 20 fold.

DVSNKAYEDAEAKAKYEAEAAFFANLK [SW:329-355] was tested, and the “Ka (activation of PKG Iα, cGMP priming conditions)” value [1] was 500 µM.

In the case of AAFFANLK [SW:348-355 AAFFANLK], the “Ka (activation of PKG)” value [1] is reported as 500 µM and the “activation relative to activation associated with cGMP” value [1] is reported as 30%.
